The supplement of paper PMC10724198
± gives the standard deviation of the averaged measurements.
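Further: PSI is a weighted mean of sequencing reads over stability bins, variants kept only with over 10 reads, mCherry proximal and sfGFP distal, peptide attached via GGGS linker.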

These sequences were tested on Saccharomyces cerevisiae (assay: protein stability index of tFT-peptide fusion (C-terminal peptide) (PSI (0-1 scale)); higher = more stable (slower turnover)). Conditions: genetic background: wild type; temperature: 30 C.
Description: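 Multiplexed protein stability (MPS) profiling in S. cerevisiae. Random 12-aa peptides (tFT-X12 library) are fused to the C-terminus of a sfGFP-mCherry tandem fluorescent timer, after mCherry and a GGGS linker. Cells are FACS-sorted into 8 mCherry/sfGFP bins and deep-sequenced. The protein stability index (PSI) is the read-weighted bin average, scaled from 0 (unstable) to 1 (stable). Only peptides with >10 reads are reported; cells were grown at 30 °C in SC-His with glucose.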
VQSWGGRGMVVW gave a protein stability index of 0.719 ± 0.036.
ENRERVVENLRD gave a protein stability index of 0.715 ± 0.04.
ARPVPRAPSRYA gave a protein stability index of 0.647 ± 0.047.
GWSTKSTYHKPT showed a protein stability index of 0.732 ± 0.025.
Sequence ARVPPFPCHPTL has a protein stability index of 0.686 ± 0.03.
ASPSPLPPLPPP showed a protein stability index of 0.718 ± 0.1.
LTVPCSSSFPLL gave a protein stability index of 0.647 ± 0.095.
In the case of EISKKKKQTKRK, the protein stability index is reported as 0.768 ± 0.12.
In the case of TISRIQTNINKK, the protein stability index is reported as 0.742 ± 0.18.
Work on ATACSIMISNAV yielded a protein stability index of 0.662 ± 0.029.
NVTIRVAIRYHE gave a protein stability index of 0.575 ± 0.021.
For PSLPPPPPRAFS, the protein stability index was 0.649 ± 0.0028.
For LLSCVRSHPDAP, the protein stability index was 0.702 ± 0.073.
Work on ALMHVTLAVGLL yielded a protein stability index of 0.579 ± 0.0027.
With SPPSPPSPPPLV the protein stability index was 0.745 ± 0.013.
In the case of PRPLPAPPQRNL, the protein stability index is reported as 0.628 ± 0.017.
Sequence CTAWGGWWTGRR has a protein stability index of 0.743 ± 0.16.
For DLRGDYCAGARV, the protein stability index was 0.685 ± 0.028.
Work on TSPPHLPASSHS yielded a protein stability index of 0.689 ± 0.014.
FMRGQCWLRGCE showed a protein stability index of 0.672 ± 0.016.
For LKGSVGGVCHTC, the protein stability index was 0.709 ± 0.032.
With LSSPCAFTCPLL the protein stability index was 0.7139 ± 0.0062.
Sequence VTLWQLANNTLG has a protein stability index of 0.626 ± 0.028.
In the case of DCFSLVLRFTPV, the protein stability index is reported as 0.64 ± 0.034.
With GGGCGGGQAGCQ the protein stability index was 0.691 ± 0.043.
In the case of PQHFARSITPPP, the protein stability index is reported as 0.64 ± 0.097.
Sequence SPGPPLLLPPPL has a protein stability index of 0.688 ± 0.085.
For PLPRPLPPRVPF, the protein stability index was 0.712 ± 0.013.
For REGPSPLDPSRF, the protein stability index was 0.684 ± 0.051.
YQDGLCYYFCTT was tested, and the protein stability index was 0.559 ± 0.02.
For PPTLPVPSPSPL, the protein stability index was 0.822 ± 0.25.
MGIVEGIGASSL gave a protein stability index of 0.662 ± 0.036.
In the case of SPPTPRIPPPLP, the protein stability index is reported as 0.663 ± 0.035.
Work on GLNGGRLEGERR yielded a protein stability index of 0.731 ± 0.11.
Work on PLPFRSSPLLVL yielded a protein stability index of 0.614 ± 0.05.
SFTSGFTDAGNI showed a protein stability index of 0.6008 ± 0.0047.
Work on KKKKIKKKKINI yielded a protein stability index of 0.597 ± 0.0067.
Work on RHVSHASRLTPG yielded a protein stability index of 0.602 ± 0.11.
In the case of SLLLPPRPPPRV, the protein stability index is reported as 0.744 ± 0.055.
Sequence LIDLLRQVNVLR has a protein stability index of 0.649 ± 0.0096.
With STVKVVIIHFKI the protein stability index was 0.48 ± 0.036.
Sequence AGGAAIVERAMK has a protein stability index of 0.6857 ± 0.003.
In the case of RDGRAGGDIGAT, the protein stability index is reported as 0.618 ± 0.11.
For GFLSSLRLLPPF, the protein stability index was 0.688 ± 0.029.
With GWGKWGVGIGRG the protein stability index was 0.694 ± 0.032.
With TRTTTQKNNATT the protein stability index was 0.717 ± 0.037.
Work on ERPRRDTTVSDT yielded a protein stability index of 0.653 ± 0.0083.
KYMPKDSLKNTI was tested, and the protein stability index was 0.622 ± 0.01.
IVGLGLENGKEI was tested, and the protein stability index was 0.704 ± 0.042.
For IKKKKKKTPKNM, the protein stability index was 0.714 ± 0.062.
For NKKKKETKNAQQ, the protein stability index was 0.698 ± 0.013.
Sequence SPLTYTAPRCPR has a protein stability index of 0.82 ± 0.088.
YPIRPRYSPAGN gave a protein stability index of 0.721 ± 0.043.
For VLSPVFLISLFS, the protein stability index was 0.552 ± 0.016.
Work on PPPASPSPSMVF yielded a protein stability index of 0.693 ± 0.024.
EQFQLCAREVAK gave a protein stability index of 0.761 ± 0.047.
VPLYVDLYLSGA was tested, and the protein stability index was 0.721 ± 0.043.
Work on PPPPPTPTPPYR yielded a protein stability index of 0.6952 ± 0.0014.
For VGPGVLVLGVGA, the protein stability index was 0.68 ± 0.035.
With GGCSRYVLILFD the protein stability index was 0.686 ± 0.15.
In the case of KIKKKKYTKYTK, the protein stability index is reported as 0.553 ± 0.052.
LPPTHPPPPPAL showed a protein stability index of 0.7 ± 0.045.
With APRTRPSPTLGT the protein stability index was 0.724 ± 0.029.
Work on DGGTSGGGVPVP yielded a protein stability index of 0.637 ± 0.054.
Sequence RWSVLSRSCSSY has a protein stability index of 0.729 ± 0.034.
In the case of CFLLCLSSSPVL, the protein stability index is reported as 0.64 ± 0.029.
With LRPPPPRGPSPP the protein stability index was 0.689 ± 0.023.
For GGVGGASMSGTP, the protein stability index was 0.674 ± 0.037.
SFYSAALSCVFI showed a protein stability index of 0.737 ± 0.15.
KQNRKEKVQRNR gave a protein stability index of 0.709 ± 0.054.
LPHLFPSTPPAS gave a protein stability index of 0.723 ± 0.025.
ICITIRQTRENK showed a protein stability index of 0.668 ± 0.027.
With HPPPTPPSPPPP the protein stability index was 0.667 ± 0.088.
For PPPPLPPPTLPT, the protein stability index was 0.726 ± 0.11.
IPPFLVSLPFLP showed a protein stability index of 0.702 ± 0.018.
CSLSGAFLNQAR showed a protein stability index of 0.6842 ± 0.0041.
TILPWCLFLVAD gave a protein stability index of 0.6 ± 0.0098.
For CDRAYSPLSRHN, the protein stability index was 0.6848 ± 0.0063.
With HPTSHRPLPAAF the protein stability index was 0.724 ± 0.0075.
In the case of NIRLRRKIIINK, the protein stability index is reported as 0.562 ± 0.088.
Sequence WGGGGGRKVSVG has a protein stability index of 0.67 ± 0.082.
VPPRPPLPPRPP was tested, and the protein stability index was 0.625 ± 0.027.
Work on NNSLPTDVDKYL yielded a protein stability index of 0.683 ± 0.019.
In the case of KDRRNKNKRQEY, the protein stability index is reported as 0.633 ± 0.012.
In the case of GTTNRMVTQKGF, the protein stability index is reported as 0.712 ± 0.024.
RERGVSVKLGGG showed a protein stability index of 0.677 ± 0.026.
HCFASLITSIVH gave a protein stability index of 0.535 ± 0.025.
DMSVVCDRVLFD showed a protein stability index of 0.733 ± 0.034.
For LLPLPPLLRLPL, the protein stability index was 0.5803 ± 0.001.
PDVNEATPKLWC was tested, and the protein stability index was 0.694 ± 0.027.
With SVYPSSPTRPPP the protein stability index was 0.683 ± 0.048.
MVTWSDRVIKSW showed a protein stability index of 0.733 ± 0.023.
In the case of FLSGVGSHLTGP, the protein stability index is reported as 0.653 ± 0.019.
APPSPPPPTSHP showed a protein stability index of 0.777 ± 0.051.
Sequence PSSPPSLRLPPL has a protein stability index of 0.701 ± 0.044.
Sequence GQFASFQSTRPP has a protein stability index of 0.754 ± 0.077.
LSHMRVSLTRPR was tested, and the protein stability index was 0.707 ± 0.029.
For LPRSLSGCGAGV, the protein stability index was 0.711 ± 0.015.
For GAMLAGRQGWGL, the protein stability index was 0.679 ± 0.018.
RLGNPPPFSTLG was tested, and the protein stability index was 0.691 ± 0.075.
PYSFDTNFVLIS was tested, and the protein stability index was 0.643 ± 0.1.
GAPVGRRPGRDR gave a protein stability index of 0.703 ± 0.035.
RSSPPSPPLLSP was tested, and the protein stability index was 0.611 ± 0.023.
In the case of FLSALLALPASP, the protein stability index is reported as 0.698 ± 0.0064.
PFPHLYTPRLLF gave a protein stability index of 0.571 ± 0.014.
For LISRQFPNHGWT, the protein stability index was 0.675 ± 0.044.
Work on SRPLANYARCSS yielded a protein stability index of 0.639 ± 0.036.
In the case of PPTLPFSARSPP, the protein stability index is reported as 0.659 ± 0.036.
In the case of WGPPPPYSPFSL, the protein stability index is reported as 0.713 ± 0.0089.
Sequence HRFPPPRPPPFS has a protein stability index of 0.729 ± 0.047.
Work on AGGLGSGGSRER yielded a protein stability index of 0.6612 ± 0.0024.
For HSPPPSLGPVPA, the protein stability index was 0.6636 ± 0.0049.
LSETTAYLQQAS was tested, and the protein stability index was 0.693 ± 0.1.
RDPTPPNPPPSR showed a protein stability index of 0.763 ± 0.057.
Sequence CPCPSHLLLRSP has a protein stability index of 0.659 ± 0.0084.
Sequence PPPAPPVRPDRS has a protein stability index of 0.686 ± 0.048.
PPPPPTPPSSTP showed a protein stability index of 0.713 ± 0.068.
RRRNSTFTNLDT gave a protein stability index of 0.6783 ± 0.0045.
RCIAAEFFRVHP was tested, and the protein stability index was 0.685 ± 0.019.
In the case of PLPLPVSPRPPP, the protein stability index is reported as 0.6807 ± 0.0063.
In the case of PRLSPLPPPSFP, the protein stability index is reported as 0.628 ± 0.045.
With WIFHHSKTTLAP the protein stability index was 0.7158 ± 0.0052.
VGDGQVWGGQGG gave a protein stability index of 0.669 ± 0.063.
SPAFSLIPCPLF gave a protein stability index of 0.742 ± 0.059.
With RGGGVGRGLGGK the protein stability index was 0.605 ± 0.066.
With PPPVPPPWPSPF the protein stability index was 0.661 ± 0.047.
Sequence TPGGDPLAPRQS has a protein stability index of 0.641 ± 0.061.
Work on AKLQQEIVWALD yielded a protein stability index of 0.779 ± 0.048.
Work on KNCARIKERKDV yielded a protein stability index of 0.627 ± 0.03.
For SGGGVGGQVAVG, the protein stability index was 0.715 ± 0.087.
With YRSTPTGPPRPT the protein stability index was 0.758 ± 0.13.
In the case of CLPFSCFLLTPR, the protein stability index is reported as 0.692 ± 0.014.
Work on PLHPSFPPPPAP yielded a protein stability index of 0.5147 ± 0.0044.
Sequence SLPPLASPPASI has a protein stability index of 0.72 ± 0.1.
AVAETCEQAGRG gave a protein stability index of 0.675 ± 0.066.
In the case of PPAPRPSTRHTP, the protein stability index is reported as 0.74 ± 0.013.
Work on PPSPPPVRPHPP yielded a protein stability index of 0.587 ± 0.068.
In the case of FFMWDLLFLSLD, the protein stability index is reported as 0.669 ± 0.011.
SPPWGQGSVSSK showed a protein stability index of 0.729 ± 0.052.
With GGVVLTWVGENC the protein stability index was 0.704 ± 0.061.
Work on AGGWRGAEGCGG yielded a protein stability index of 0.782 ± 0.083.
LPGSVLLFPSFS showed a protein stability index of 0.747 ± 0.035.
Sequence SSPSPPSSSSFP has a protein stability index of 0.639 ± 0.028.
For LLPLLYKWLGLR, the protein stability index was 0.681 ± 0.025.
RPLPGAFLLFRS was tested, and the protein stability index was 0.695 ± 0.021.
For CLHFSFFTFENF, the protein stability index was 0.67 ± 0.02.
